Test results taken from the nanobody polyreactivity screen of Harvey et al. (2022).

assay: yeast display, Sf9 membrane polyspecificity reagent, FACS + sequencing; frameworks hold sequencing errors
How it was run: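 In a synthetic yeast display library (Saccharomyces cerevisiae BJ5465), nanobody expression was induced with galactose for 36–48 hours. FACS gates were set low and high (top ~1%) using anti-HA fluorescence for expression and streptavidin fluorescence for binding of the Sf9 membrane reagent. Each polyreactivity label is drawn from the gate of origin.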

Row | Sequence | polyreactivity (PSR sort gate)
1 | QDQLVESGGGLVQAGGSLRLSCAASGYTFRYNAMGWYIQATGKERELVATITRGGSTNYADSVKGRFTISRDNAKNTVYLQMNSLKPEDTAVYYCNKEAAPLAFVPSYYGRDYWGQGTEVTVSS | low polyreactivity
2 | QDQLVESGGGLVQAGGSLRLSCAASGYTFSYYAMGWYRQAPGKERELVARISWGGGSTYYADSVKGRFTISRDNAKNTVYLQMNSLKPEDTAVYYCNARDLGRDWYWPEDDYWGQGTQVTVSS | low polyreactivity
3 | QDQLVESGGGLVQAGGSLRLSCAASRSIFYGYATRSYRQEPGKESELVAAISYSGDRTYYADSVKGRFTISRDNAKNTVYLQMNSLKPEDTAVYYCAAESRGVGAYYYRGQGTQVTVSS | high polyreactivity
4 | QDQLVESGGGLVQAGGSLRLSCAASVRIFWLYAMGWYRQAPGKERELVAVISWSGGTTYYADSVKGRFTISRDNAKNTVYLQMNSLKPEDTAVYSCAAQVGFYTNYREFDYWGQGTQVTVSS | low polyreactivity
5 | QDQLVESGGGLVQAGGSLRLSCAASVSIFGSYAMGWYRQAPGKERELVAGITSSGGSTYYADSVKGRFTISRDNAKNTVYLQMNSLKPEDTAVYYCNAPLGWWQFYYCGQGTQVTVSS | high polyreactivity
6 | QDQLVESGGGLVQAGGSLRLSCAAYGNTIIRYAMGWYRQAPGKERELVAAIAYSGGRTYYADSVKGRFTISRDNAKNTVFLQMNSLKPEDTAVYYCNAASRYGGDYWGQGTQVTVSS | high polyreactivity
7 | QDQLVESGGGLVQAGGSLRLSCAAYGRIFRANVMGWYRQAPGKERELVAAINWSGGSTYYADSVKGRFTISRDIAKNTVYLQMNSLKPEDTAVYYCAAAYKWFGEGRFYYWGQGTQVTVSS | high polyreactivity
8 | QDQLVESGGGLVQAGGSLRLSCAGSGSTFKRYAMGWYRQAPGKDRELVAAISRRGGSTYYADSVKGRFTISRDNAKNTVYLQMNSLKPEDTAVYYCAARGTGNIYDYWGQGTQVTVSS | high polyreactivity
9 | QDQLVESGGGLVQAGGSLRLSCAPSGRTFGGYSMGWYRQAPGKERELVASNTSGGSTYYADSVKGRFTISRDNAKNTVYLQMNSLKPEDTAVYYCAAVTYFETSSRAIPSNDYWGQGTQVTVSS | low polyreactivity
10 | QDQLVESGGGLVQAGGSLRLSCAPSGRTFRYNAMGWYIQAPVKERELVAAINWNCGSTYYADSVKGRFTISRDNAKNTVYLQMNSLKPEDTAVYYCNADFYHRYDWGQGTQVTVSS | high polyreactivity
11 | QDQLVESGGGLVQAGGSLRLSCASSGSIITQYAMGWYRQAPGKERELVAAITSGGSPYADSVKGRFTISRDNAKNTVYLQMNSLKPEDTADYYCATPYSYRGVTFNYWGQGTQVTVSS | low polyreactivity
12 | QDQLVESGGGLVQAGGSLRLSCASSGSTFNIYAMGWYRQAPGKERELVAAITSRGTSTYYADSVKGRFTISRDNAKNTVYLQMNSLKPEDTAVYYCAAEVSGNYYRYNYWGQGTQVTVSS | high polyreactivity
13 | QDQLVESGGGLVQAGGSLRLSCASSVRTIYIYAMGWYRHPPGKESEFVASITGRGTRTYYADSVKGRFTISRDNAKNTVYLQMNSLTQEDTAVYYCNARGKVQSSYDEDYWGQGTQVTVSS | high polyreactivity
14 | QDQLVESGGGLVQAGGSLRLSCDASGSIIQSYTMGWYRQAPGKERELVAAIDSGGSTYYADSVKGRFTISRDNAKNTVYLQMNSLKPEDTAVYYCAAEPDTYWYTYDYWGQGTQVTVSS | low polyreactivity
15 | QDQLVESGGGLVQAGGSLRLSCDASGYIFQSNVLGWYRQAPGKERELVAAITVSGGSTYYADSVKGRFTISRDNAKNTVYLQMNSLKPEDTAVYYCAALVAHKGDYWGQGTQVTVSS | high polyreactivity
16 | QDQLVESGGGLVQAGGSLRLSCSASGSIFRDKAMGWYRQAPGKERELVAAISIVGSTSYADSVKGRFTISRDNAKNTVYLQMNSLKPEDTAVYYCAADTFYSYYDMDYWGQGTQVTVSS | low polyreactivity
17 | QDQLVESGGGLVQAGGSLRLSFAASGLTFRYYAMGWYRQAPGKERELVAAISSGGRTDYADSVKGRFTISRDNAKNTVYLQMNSLKPEDTAVYYCNARGRIRSYRQVRTYSAYNYWGQGTQVTVSS | high polyreactivity
18 | QDQLVESGGGLVQAGGSLRLSFAASGNIFRYYAMGWYRQAPGKERELVAAISRSGGNTYYADSVKGRFTISRDNAKNTVYLQMNSLKTEDTAVYYCAVVLSTYSYADYDYWGQGTQVTLSS | high polyreactivity
19 | QDQLVESGGGLVQAGGSLRLSGAASGRIFRTNAMGWSRQAPGKERELVAAISDSGADTSYADSVKGRFTISRDNAKQSVYLQMNSLKPEDTAVYYCNRGRVSYRYLKDYDYWGQGTQVTVSS | low polyreactivity
20 | QDQLVESGGGLVQAGGSLRLSGAASGSTFGGNAMGWYRQAPGKERELVAAISSSGGSTYYADSVKGRFTISRDNAKYSVYLQMNRLKPEDTAVYYCAAMYHWTYDYWGQGTQVTVSS | low polyreactivity
21 | QDQLVESGGGLVQAGGSLRLSSAASGRTFCYNTKGWYRQSPGKERELLAAINYSGGSTYYADSVKGRFTISRDNAKNTVYLQMNSLKPEDTAVYYWNAKPRWYVPYDYWGQGTQVNVSS | high polyreactivity
22 | QDQLVESGGGLVQAGGSLRLTCAASGSTFNYYAMGWYRQAPGKERELVAAISRSGGRTYYADSVKGRFTISRDNAKTTVYLQMNSLKEEDTAVYYCAAQVLTTGGEGGYWGQGTQVTVSS | high polyreactivity

Row | Sequence | polyreactivity (PSR sort gate)
23 | QDQLVESGGGLVQAGGSLSLICDASGRTFSTKFMGWYIQAAGKERQLVAAITTSSSRTYYADSVKGRFTISRDNANHTVYLLMNSLKPEDTAVYYCAARIHGSWSFDYWGQGTQVTLSS | low polyreactivity
24 | QDQLVESGGGLVQAGGSLSLSCAASGRNFFHNAMGWYRQAPGKERELVASITSGDGTYYADSVKGRFTISRDNAKNTVYLQMNSMKPEDTEVYSCAAEPGSIAYYYTRVGLYYWGQGTQVTVSS | low polyreactivity
25 | QDQLVESGGGLVQAGGSLSLSCAASGRTFTVYAMGWYRQAPGKERELVAAISGSSGSTDYADSVKGRFTISRDNAKNTVYLQMNSLKPEDTAVYYCAKASSATRYVQLRQDYDYWGQGTQVTVSS | low polyreactivity
26 | QDQLVESGGGLVQAGGSLSLSCAASGSTFLTNAMGWYRQAPGKERELVAAISRRGGNTYYADSVKGRFTISRDNAKNTVYLQMNSMNPEDTAVYYCNAVTPTTLGDYWGQGTQVTVSS | high polyreactivity
27 | QDQLVESGGGLVQAGGTLRLSGAASGRTFDRNAMGWYRQAPGKAWEVVAGITRSGDSTYADSVKGRFTISRDNAKNTVYLQMNSLKPEDTAVYYCNKEGTVGGTRGYWGQGTQVTVSS | low polyreactivity
28 | QDQLVESGGGLVQAGVSLLLICAASGSTSSVYAMGWYRQAPGKERELVAAIRWSTGSTYYADSVKGLFTISRDNAKNTVYLHMNCLKPEETALYYCAAEVYTSVHIYSWYYYWGQGTKVTVSS | high polyreactivity
29 | QDQLVESGGGLVQAGVSLRLICPASGLTFYTYAMGSYRQAPGKERELVAAIRRRGGRTYYADSVKGRFTISRDNAKNTVFLQMNSLKPEDTAVYYCAADYSTLFKYDYWGQGTQVTVSS | low polyreactivity
30 | QDQLVESGGGLVQARGSLRLSCAASGSIFVHNAMGWYRQAPGKEREFVAAITWSGGSTYYADSVKGRFTISRDYAKNTVYLQMNSLKPEDTAVSYCAAEDVAAQWAYESPTSYWYYYWGQGTQVTVSS | low polyreactivity
31 | QDQLVESGGGLVQARGSLRLSCASSGSTFDTNTMGWYRQAPGKERELVASNSRGTSTKYADSVKGRFTISRDNAKNTVYLQMNSLKPEDTAVYYCNAVSRDKSLYDYWGQGTQVTVSS | high polyreactivity
32 | QDQLVESGGGLVQARVSLRLSCAASGLIFRRYAMGWYRQAPGKEREFVAAITVSGGRTYYADSVKGRFTISRDNAKNTVYLQMNSLKQEDTAVYYCDAHGYGDNRNKYFYWGLGTQVTVSS | high polyreactivity
33 | QDQLVESGGGLVQAVGSLRLSCAASGSTFWSYAMGWYRQAPGKERELVAAITDSGGSTYYADSVKGRFTISRDNAKNTVYLQMNSLKPEDTAVYYCAVDSRYTPPLRPLGPFDYWGQGTQVTVSS | low polyreactivity
34 | QDQLVESGGGLVQSGGSLLLSCAPSGSMFSFYAMGCYRQAPGKEMELVAAITRGGATTNFADSVKGRFTISRDNAKNTVYLQMNSLKPEDTAVYYCAARTPNVNAVWMDYWGQGTQVTVSS | high polyreactivity
35 | QDQLVESGGRLVQAGGSLRLSCAASGITFSRYAMGWYRQAPGKEWELVAAISCSGARTYYADSVKGRFTISRDNAKNTVYLQMNSLKPEDTAVYYCDRFLRNFKTYDYWGQGTQLTVSS | high polyreactivity
36 | QDQLVESGGRLVQAGGSLRLSCAASGRTVYYYTMGWYRQAPGKEREFVAGIRYSGSSTYYADSVKGRFTISRDTAKNTVSFQMNSLKPEATAVYYCAASLWRWRFSRFGYWGQGTQVTVSS | high polyreactivity
37 | QDQLVESGRGLDQAGGSLRLICAASGRIFDRYALGWYRQAPGTERELVAAISWNTGSTYYADSVKGRFTISRDNAKNTVYLQMNSLKPEDTAVYYCAAAVRPYKRQDDYWGQGTQVTVSS | high polyreactivity
38 | QDQLVESGVGLVQAGVSLRLSCAASGSIFESYAMGWSSQAPGKESELVAAIDYDDGSTYYADSVKGRFTISRDNAKNTVYLQMNSLKPEDTAVYYCAAKPTTYYGISDYWGQGTQVTVAS | high polyreactivity
39 | QDQLVESRGGLVQAGGSLRLSCAASGLIFPVYAMGWYRQAPRKEREFVASIWRGGTTYYADSVKGRFTISRDNAKNTVYLQMISLKPEDTAVYYCAAVVYSRGYYWGQGTQVTVSS | high polyreactivity
40 | QDQLVESRGGLVQAGGSLRLSCAASGSTFVNNAMGWYRQAPGKERELVAAIRSSDGRTYYADSVKGRFTISRDNAKNTVYLQMNSLKPEDSAVYYCATAVGTKYRTRIFEFYYWGQGTQVTVSS | high polyreactivity
41 | QDQLVESRGGLVQAGRSLRISCAASGFIFYNYGMGWYRQAPGKEREFVAAITKRGGRTYYADSVKGRFTISRDYAKNTVYLQMTSLKPEDTAVYYCNKAIRQDRWVQEEDYWGQGTQVTVSS | high polyreactivity
42 | QDQLVESRGGLVQAGVSLRLSCAASGIIFAENAMGWYRQAPGKERELVAAITWNGGRTYYADSVKGRFTISRDNAKNTVYLQMNSLKPEDTAVYYCNAVTVYYRIYEYWGQGTQVNVSS | high polyreactivity
43 | QDQLVESRGVLVQAGGTLRLSCAASGSTFVYYVMGWYRQAPVKERELVAAISWSDDSTYYADSVKGRFTISRDNAKNTVYLQMNSLIPVDTAVYYCAATGYPFYTSGDIEYYYWGQGTQVTVSS | low polyreactivity
